Where two headings read alike, the source gives them in different places. One block for each molecule: values may come before it. Starred links: 1 amine or outer side, 2 acyl side, 3 side chain; linkers in the order of their positions; H or OH if unused. *: point of attachment. Kbt‑6‑CONH = ketobenzothiazole-6-CONH (amide link to Val), O=C(c1ccc2nc([*:1])sc2c1)[*:2]; kt = C-terminal ketothiazole, c1csc(*)n1
Experiments:
[1] = biological target: Ac-Ala-Arg-Leu-P1-ACC, P1 = L-Glu (E)
[2] = biological target: Ac-Ala-Arg-Leu-P1-ACC, P1 = L-Thr (T)
[3] = biological target: Ac-Ala-Arg-Leu-P1-ACC, P1 = L-Phe (F)
[4] = biological target: Ac-Ala-Arg-Leu-P1-ACC, P1 = L-Val (V)
[5] = biological target: Ac-Ala-Arg-Leu-P1-ACC, P1 = L-Lys (K)
[6] = biological target: Ac-Ala-Arg-Leu-P1-ACC, P1 = L-Asn (N)
[7] = biological target: Ac-Ala-Arg-Leu-P1-ACC, P1 = L-Asp (D)
[8] = biological target: Ac-Ala-Arg-Leu-P1-ACC, P1 = L-Ala (A)
[9] = biological target: Ac-Ala-Arg-Leu-P1-ACC, P1 = L-Tyr (Y)
[10] = biological target: Ac-Ala-Arg-Leu-P1-ACC, P1 = L-Ile (I)
[11] = biological target: Ac-Ala-Arg-Leu-P1-ACC, P1 = L-Met (M)
[12] = biological target: Ac-Ala-Arg-Leu-P1-ACC, P1 = L-Gln (Q)
[13] = biological target: Ac-Ala-Arg-Leu-P1-ACC, P1 = L-Pro (P)
[14] = biological target: Ac-Ala-Arg-Leu-P1-ACC, P1 = L-Trp (W)
[15] = biological target: Ac-Ala-Arg-Leu-Arg-ACC
[16] = biological target: Ac-Ala-Arg-Leu-P1-ACC, P1 = L-Ser (S)
[17] = biological target: Ac-Ala-Arg-Leu-P1-ACC, P1 = L-Leu (L)
[18] = biological target: Ac-Ala-Arg-Leu-P1-ACC, P1 = L-His (H)
[19] = biological target: Ac-Ala-Arg-Leu-P1-ACC, P1 = Gly (G)
[20] = biological target: Boc-QLR-AMC
[21] = biological target: Ac-Agp-hArg-Leu-Arg-ACC
[22] = biological target: Ac-His(3Bom)-Agp-hLeu-Arg-ACC
[23] = biological target: NH2-Leu-DTrp-Nle-Arg-ACC
[24] = biological target: Ac-Ala-Arg-Leu-Arg-ACC; remark: listed apart in the source
[25] = biological target: T1, Recombinant human hepsin (4776-SE-010, R&D Systems), activated (human, UniProt P05981); experiment: fluorogenic inhibition assay
[26] = biological target: T2, matriptase (Charles Craik, UCSF), recombinant (Homo sapiens (Human), UniProt Q9Y5Y6); experiment: fluorogenic inhibition assay
T2 sequence: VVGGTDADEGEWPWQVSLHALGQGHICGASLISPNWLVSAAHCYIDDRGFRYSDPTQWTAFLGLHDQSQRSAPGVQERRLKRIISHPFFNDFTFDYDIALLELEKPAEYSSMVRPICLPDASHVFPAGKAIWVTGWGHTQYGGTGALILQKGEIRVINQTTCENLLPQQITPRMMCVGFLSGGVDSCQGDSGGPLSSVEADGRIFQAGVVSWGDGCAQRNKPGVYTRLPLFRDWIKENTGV

[27] = biological target: Hepatocyte Growth Factor Activator (HGFA) serine protease domain, N-terminal His-tag, recombinant (Homo sapiens (Human)) (UniProt Q04756); experiment: fluorogenic inhibition assay
[28] = biological target: Trypsin; experiment: selectivity inhibition assay
[29] = biological target: Factor Xa; experiment: selectivity inhibition assay
[30] = biological target: recombinant thrombin; experiment: selectivity inhibition assay
[31] = biological target: Hepatocyte Growth Factor Activator (HGFA) serine protease domain, N-terminal His-tag, recombinant (Homo sapiens (Human)) (UniProt Q04756); experiment: fluorogenic inhibition assay; remark: listed apart in the source
[32] = biological target: T1, Recombinant human hepsin (4776-SE-010, …); experiment: fluorogenic inhibition assay; remark: listed apart in the source
[33] = biological target: T2, matriptase (Charles Craik, UCSF), …; experiment: fluorogenic inhibition assay; remark: listed apart in the source
[34] = biological target: Hepatocyte Growth Factor Activator (HGFA) serine protease domain, N-terminal His-tag, recombinant (Homo sapiens (Human)) (UniProt Q04756); experiment: fluorogenic inhibition assay; remark: listed apart in the source
[35] = biological target: Factor Xa; experiment: chromogenic inhibition assay
[36] = biological target: recombinant thrombin; experiment: chromogenic inhibition assay
[37] = biological target: T3, matriptase (Charles Craik, UCSF), recombinant (Homo sapiens (Human)) (UniProt Q9Y5Y6)
T3 sequence: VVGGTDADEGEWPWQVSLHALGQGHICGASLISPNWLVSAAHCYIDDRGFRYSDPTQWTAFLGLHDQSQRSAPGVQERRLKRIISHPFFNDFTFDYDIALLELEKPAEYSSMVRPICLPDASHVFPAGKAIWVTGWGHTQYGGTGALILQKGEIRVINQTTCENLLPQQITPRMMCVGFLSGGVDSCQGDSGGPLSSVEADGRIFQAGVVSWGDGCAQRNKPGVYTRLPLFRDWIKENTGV

[38] = biological target: Recombinant human hepsin (4776-SE-010, R&D Systems), activated (human) (UniProt P05981)
[39] = biological target: Hepatocyte Growth Factor Activator (HGFA) serine protease domain, N-terminal His-tag, recombinant (Homo sapiens (Human)) (UniProt Q04756)
[40] = biological target: T1, Recombinant human hepsin (4776-SE-010, …); experiment: fluorogenic inhibition assay; remark: listed apart in the source
Description: (§1) Inhibitors (11-pt serial dilutions, 0-20 μM final concentration in reaction) were serially diluted in DMSO (2% DMSO final concentration) and then mixed with either recombinant serine protease domain of HGFA [Z. Han, P. K. Harris, D. E. Jones, R. Chugani, T. Kim, M. Agarwal, W. Shen, S. A. Wildman, J. W. Janetka, Acs Med Chem Lett 2014, 5, 1219-1224], matriptase (Charles Craik, UCSF) or hepsin* (#4776-SE-010, R&D Systems, Minneapolis, Minn.) in black 384 well plates (Corning #3575. Corning, N.Y.). […] The final substrate concentrations for all assays were at the Kₘ for the respective enzymes. Changes in fluorescence (excitation at 380 nm and emission at 460 nm) were measured at room temperature over time in a Biotek Synergy 2 plate reader (Winnoski, Vt.). Using GraphPad Prism version 6.04 software program, (GraphPad Software, San Diego, Calif., www.graphpad.com), a four parameter curve fit was used to determine the inhibitor IC₅₀s from a plot of the mean reaction velocity versus the inhibitor concentration. The IC₅₀ values represent the average of three separate experimental determinations.

[41] = biological target: T2, matriptase (Charles Craik, UCSF), …; experiment: fluorogenic inhibition assay; remark: listed apart in the source
Description: as §1

[42] = biological target: Hepatocyte Growth Factor Activator (HGFA) serine protease domain, N-terminal His-tag, recombinant (Homo sapiens (Human)) (UniProt Q04756); remark: listed apart in the source

Molecule: Ac-KQLR-{Kbt‑6‑CONH-Val-NH2} [Ac-KQLR(SEQ ID NO: 1)-Kbt-Val-NH2]
Ki [25]: 0.29 nM | Ki [26]: 6.98 nM | Ki [27]: 13 nM | fold change of potency against Ac-KQLR-kbt (7) [27]: 2 fold | Ki [28]: 0.07 nM | Ki [29]: 66 nM | Ki [30]: 3.21 µM | Ki [31]: 12 nM | fold decrease of activity against Ac-KQLR-kbt (7) [32]: > 3 fold | fold decrease of activity against Ac-KQLR-kbt (7) [33]: > 10 fold

B2: Ac-KRLR(SEQ ID NO: 8)-kt (peptide)
peptide: Ac-KRLR-kt
SMILES: CC(=O)N[C@@H](CCCCN)C(=O)N[C@@H](CCCNC(=N)N)C(=O)N[C@@H](CC(C)C)C(=O)N[C@@H](CCCNC(=N)N)C(=O)c1nccs1
IC50 of enzyme inhibition [37]: 0.014 µM | IC50 of enzyme inhibition [38]: 5 nM | IC50 of enzyme inhibition [39]: 0.225 µM | Ki [40]: 0.57 nM | Ki [41]: 1.1 nM | EC50 of inhibition of c-MET phosphorylation (Y1234/1235) in MDA-MB-231 cells treated with pro-HGF/HGFA reactions [42]: 180 nM | Ki [31]: 12 nM

Results, then the molecule that gave them:

% activity, P1 position [1]: 0% | % activity, P1 position [2]: 0% | % activity, P1 position [3]: 0% | % activity, P1 position [4]: 0% | % activity, P1 position [5]: 0.99% | % activity, P1 position [6]: 0% | % activity, P1 position [7]: 0% | % activity, P1 position [8]: 0% | % activity, P1 position [9]: 0% | % activity, P1 position [10]: 0% | % activity, P1 position [11]: 0% | % activity, P1 position [12]: 0% | % activity, P1 position [13]: 0% | % activity, P1 position [14]: 0.73% | % activity, P1 position [15]: 100% | % activity, P1 position [16]: 0% | % activity, P1 position [17]: 0% | % activity, P1 position [18]: 0% | % activity, P1 position [19]: 0% | Km of fluorogenic substrate [20]: 37 µM | kcat/KM [21]: 41300 | kcat/KM [22]: 28100 | kcat/KM [23]: 17700 | kcat/KM [24]: 3140
Molecule: Hepatocyte Growth Factor Activator (HGFA) serine protease domain, N-terminal His-tag, recombinant (from UniProt Q04756) (enzyme)

Ki [34]: 66 nM | Ki [35]: 759 nM | Ki [36]: 3.7 µM | IC50 of enzyme inhibition [37]: 0.175 µM | IC50 of enzyme inhibition [38]: 9 nM | IC50 of enzyme inhibition [39]: 0.435 µM | Ki [40]: 1.2 nM | Ki [41]: 69 nM | Ki [31]: 63 nM | Ki [33]: 66 nM
B1: Ac-SWLR(SEQ ID NO: 17)-kt (peptide)
peptide: Ac-SWLR-kt
SMILES: CC(=O)N[C@@H](CO)C(=O)N[C@@H](Cc1c[nH]c2ccccc12)C(=O)N[C@@H](CC(C)C)C(=O)N[C@@H](CCCNC(=N)N)C(=O)c1nccs1
